Experimental findings from the Immune Epitope Database (IEDB) are described below.

Experiment [1] addresses HLA-B*57:01. The experiment in a line: IEDB peptide-MHC binding, purified MHC/competitive/radioactivity; filed as Kd, often an IC50 or EC50 that approximates it; ≥ and ≤ were set here for values at or beyond the usual limits of such assays.
Experiment [2] has as its target HLA-B*58:01. The experiment is described as above.
In a further experiment the target is HLA-A*32:01. The experiment is described as above. To be noted: source organism: Dengue virus 1 Brazil/97-11/1997.
Another experiment deals with HLA-B*40:01. The experiment is described as follows: IEDB peptide-MHC binding, purified MHC/direct/fluorescence; filed as Kd, often an IC50 or EC50 that approximates it; ≥ and ≤ were set here for values at or beyond the usual limits of such assays.
In experiment [3] the target is HLA-A*69:01. The description is as above.
The target of experiment [4] is HLA-A*26:01. The description is as above.
Another experiment addresses HLA-B*27:05. The experiment is described as above.
The next experiment concerns the target HLA-A*02:01. The description is as above.
For experiment [5], the target named is HLA-B*44:02. The description is as above. Conditions: source organism: Vibrio parahaemolyticus.
Experiment [6] deals with HLA-A*01:01. The experiment is described as above.
The next experiment concerns the target HLA-A*30:01. The experiment is described as above.
In experiment [7] the target is HLA-B*58:01. The experiment is described as above.
In a further experiment the target is HLA-A*11:01. The description is as above.
A further experiment addresses HLA-B*08:01. The description is as above.
The target in experiment [8] is HLA-B*15:01. The experiment is described as above.
A further experiment addresses HLA-A*03:01. The description is as above.
In experiment [9] the target is HLA-A*31:01. The description is as above.
Another experiment addresses HLA-B*07:02. The experiment is described as above. Conditions: source organism: Vibrio parahaemolyticus.
Experiment [10] has as its target HLA-A*69:01. The experiment in a line: IEDB peptide-MHC binding, purified MHC/competitive/fluorescence; filed as Kd, often an IC50 or EC50 that approximates it; ≥ and ≤ were set here for values at or beyond the usual limits of such assays. Conditions: source organism: Entamoeba dispar SAW760.
In experiment [11] the target is HLA-A*26:01. Described as above. Conditions: source organism: Entamoeba dispar SAW760.
For the next experiment, the target named is HLA-A*02:03. The description is as above. Conditions: source organism: Entamoeba dispar SAW760.
The target of the next experiment is HLA-B*18:01. The experiment is described as above. To be noted: source organism: Entamoeba dispar SAW760.
Experiment [12] deals with HLA-B*57:01. The experiment is described as above. Conditions: source organism: Entamoeba dispar SAW760.
A further experiment has as its target HLA-A*02:12. The experiment is described as above. To be noted: source organism: Entamoeba dispar SAW760.
The next experiment has as its target HLA-B*27:03. The description is as above. To be noted: source organism: Entamoeba dispar SAW760.
For the next experiment, the target named is HLA-B*15:17. The description is as above. To be noted: source organism: Entamoeba dispar SAW760.
Experiment [13] addresses HLA-A*24:03. The description is as above. To be noted: source organism: Entamoeba dispar SAW760.
Experiment [14] concerns the target HLA-B*15:01. The experiment is described as above. To be noted: source organism: Entamoeba dispar SAW760.
The next experiment deals with HLA-A*23:01. The experiment is described as above.
The target in experiment [15] is HLA-B*51:01. The description is as above. Conditions: source organism: Entamoeba dispar SAW760.
The next experiment has as its target HLA-B*39:01. The experiment is described as above. Conditions: source organism: Entamoeba dispar SAW760.
The target in experiment [16] is HLA-A*31:01. The description is as above. Conditions: source organism: Entamoeba dispar SAW760.
In a further experiment the target is HLA-A*02:19. The experiment is described as above. Conditions: source organism: Entamoeba dispar SAW760.
The target of a further experiment is HLA-B*46:01. The description is as above. To be noted: source organism: Entamoeba dispar SAW760.
A further experiment deals with HLA-A*68:02. The experiment is described as above. Conditions: source organism: Entamoeba dispar SAW760.
Experiment [17] concerns the target HLA-A*24:03. The experiment is described as follows: IEDB peptide-MHC binding, purified MHC/direct/fluorescence; filed as Kd, often an IC50 or EC50 that approximates it; ≥ and ≤ were set here for values at or beyond the usual limits of such assays. To be noted: source organism: Escherichia coli.
The target of experiment [18] is HLA-B*44:02. The experiment is described as follows: IEDB peptide-MHC binding, purified MHC/competitive/radioactivity; filed as Kd, often an IC50 or EC50 that approximates it; ≥ and ≤ were set here for values at or beyond the usual limits of such assays. To be noted: source organism: Dengue virus 3 Sri Lanka/1266/2000.
A further experiment concerns the target HLA-B*53:01. Described as above.
Another experiment has as its target HLA-B*44:03. Described as above. To be noted: source organism: Dengue virus 3 Sri Lanka/1266/2000.
Experiment [19] addresses HLA-A*01:01. Described as above. To be noted: source organism: Dengue virus 3 Martinique/1243/1999.
For experiment [20], the target named is HLA-B*51:01. The description is as above. Conditions: source organism: Dengue virus 3 Martinique/1243/1999.
The mark [21] stands for this setting: source organism: Dengue virus 1 Brazil/97-11/1997.
Where [22] appears, read: source organism: Vibrio parahaemolyticus.
Setting [23] is: source organism: Dengue virus 4 Philippines/H241/1956.
The mark [24] stands for this setting: source organism: Escherichia coli.
Where [25] appears, read: source organism: Dengue virus 3 Sri Lanka/1266/2000.
[26] abbreviates: source organism: Dengue virus 3 Martinique/1243/1999.
The mark [27] stands for this setting: source organism: Dengue virus 2 Jamaica/1409/1983.

One may read the Kd as the concentration at which binding is half-saturated. With RSWNSGYDW, the figures for the dissociation constant Kd with HLA-B*57:01 [1] (setting [21]), in the experiment with HLA-B*58:01 [2] (setting [21]) and with HLA-A*32:01 were at most 0.001 µM, 0.0135 µM and 0.0543 µM, respectively.

For the sequence DQFSIPIRY, the equilibrium dissociation constant (Kd) with HLA-B*40:01 (setting [22]), with HLA-A*69:01 [3] (setting [22]), with HLA-A*26:01 [4] (setting [22]), with HLA-B*27:05 (setting [22]), with HLA-A*02:01 (setting [22]) and with HLA-B*44:02 [5] was at least 20 µM in each case. The dissociation constant (Kd) is at least 20 µM with HLA-A*01:01 [6] (setting [22]); 8.36 µM in the experiment with HLA-A*30:01 (setting [22]); at least 20 µM with HLA-B*58:01 [7] (setting [22]); at least 20 µM with HLA-A*11:01 (setting [22]); at least 20 µM in the experiment with HLA-B*08:01 (setting [22]); 0.579 µM in the experiment with HLA-B*15:01 [8] (setting [22]). The Kd in the experiment with HLA-A*03:01 (setting [22]), in the experiment with HLA-A*31:01 [9] (setting [22]) and in the experiment with HLA-B*07:02 was at least 20 µM throughout.

Regarding LMTHTWHAK, the Kd in the experiment with HLA-A*69:01 [10], with HLA-A*26:01 [11], with HLA-A*02:03, with HLA-B*18:01, in the experiment with HLA-B*57:01 [12] and with HLA-A*02:12 was at least 20 µM throughout. For the same sequence, the dissociation constant Kd with HLA-B*27:03, with HLA-B*15:17, with HLA-A*24:03 [13], with HLA-B*15:01 [14], in the experiment with HLA-A*23:01 (source organism: Entamoeba dispar SAW760) and in the experiment with HLA-B*51:01 [15] was at least 20 µM in each case. The Kd is at least 20 µM with HLA-B*39:01; 0.119 µM in the experiment with HLA-A*31:01 [16]; at least 20 µM in the experiment with HLA-A*02:19; at least 20 µM with HLA-B*46:01; at least 20 µM in the experiment with HLA-A*68:02.

In the case of EASISNITTA, the Kd in the experiment with HLA-B*57:01 [1] (setting [23]) is at least 23.5 µM; in the experiment with HLA-B*58:01 [2] (setting [23]) it was 1.63 µM.

NMERKLNLS: the Kd in the experiment with HLA-B*40:01 (setting [24]), with HLA-A*69:01 [3] (setting [24]), with HLA-A*26:01 [4] (setting [24]), with HLA-B*27:05 (setting [24]), with HLA-A*02:01 (setting [24]) and with HLA-A*01:01 [6] (setting [24]) was at least 20 µM each time. Moreover, the Kd in the experiment with HLA-A*30:01 (setting [24]), in the experiment with HLA-B*58:01 [7] (setting [24]), in the experiment with HLA-A*11:01 (setting [24]), with HLA-B*08:01 (setting [24]), with HLA-A*24:03 [17] and with HLA-B*15:01 [8] (setting [24]) was at least 20 µM in each case. Further, the Kd with HLA-A*03:01 (setting [24]) and with HLA-A*31:01 [9] (setting [24]) was at least 20 µM throughout.

On to MEITAEWLW, for which the equilibrium dissociation constant (Kd) in the experiment with HLA-B*44:02 [18] came to 0.00463 µM; with HLA-B*58:01 [2] (setting [25]), 0.00539 µM; in the experiment with HLA-B*53:01 (setting [25]), 0.0321 µM; in the experiment with HLA-B*44:03, 0.00915 µM.

In the experiment with HLA-A*23:01 (source organism: Francisella tularensis subsp. tularensis FSC198), MQLAKEHNF registered a Kd of 0.0291 µM.

Turning to LATAIAGAW, the Kd with HLA-B*57:01 [1] (setting [26]) turned out to be 0.00719 µM; with HLA-B*58:01 [2] (setting [26]), 0.0056 µM; with HLA-B*53:01 (setting [26]), 0.0199 µM.

Take RSWNSGHEW: the Kd with HLA-B*57:01 [1] (setting [27]) is 0.00205 µM; with HLA-B*58:01 [2] (setting [27]), 0.00105 µM.

Turning to LTAAVLLLI, the dissociation constant Kd in the experiment with HLA-A*01:01 [19] was at least 78.1 µM; with HLA-B*58:01 [2] (setting [26]), 0.0113 µM; with HLA-B*51:01 [20], 0.647 µM.
